In patent publication US20230079955A1 (POSEIDA THERAPEUTICS, published 2023):
Substitutions are numbered along the chain they refer to.

T1: His-tagged p62/p58 MUC1 protein (UniProt P15941 1036-1155, limits assumed)
T1 construct: domain: p62/p58; Soluble staining reagent for the CAR on T cells, detected with an anti-His secondary antibody; not shown: His tag
T1 sequence (looked up): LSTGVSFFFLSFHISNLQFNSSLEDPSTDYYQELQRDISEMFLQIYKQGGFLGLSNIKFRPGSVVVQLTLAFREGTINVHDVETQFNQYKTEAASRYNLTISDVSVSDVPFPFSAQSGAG

B1: "L2H2" CAR (humanized MUC1-C scFv chimeric antigen receptor) (other)
chain: EILLTQSPDFQSVTPKEKVTFTCRASQSIGTSIHWYQQKPNQSPKLLIKYASESISGVPSRFSGSGSGTDFTLTINSVESEDIADYYCQQSNNWPLTFGQGTKLEIKGGGGSGGGGSGGGGSQVQLVQSGAEVKKPGSSVKISCKTSGYAFSNFWMNWVRQAPGQGLEWIGQIYPGDGDTNYNGKFKGRVTLTADKSTSTAYMELSSLRSEATAVYFCARSYYRSAWFAYWGQGTLVTVSSTTTPAPRPPTPAPTIASQPLSLRPEACRPAAGGAVHTRGLDFACDIYIWAPLAGTCGVLLLSLVITLYCKRGRKKLLYIFKQPFMRPVQTTQEEDGCSCRFPEEEEGGCELRVKFSRSADAPAYKQGQNQLYNELNLGRREEYDVLDKRRGRDPEMGGKPRRKNPQEGLYNELQKDKMAEAYSEIGMKGERRRGKGHDGLYQGLSTATKDTYDALHMQALPPR
B2: "L1H2" CAR (humanized MUC1-C scFv chimeric antigen receptor) (other)
chain: B1 chain with V78L, D85T
B3: "L1H4" CAR (humanized MUC1-C scFv chimeric antigen receptor) (other)
chain: B1 chain with V78L, D85T, R160K, A162R, V190A, T198S
B4: "L3H2" CAR (humanized MUC1-C scFv chimeric antigen receptor) (other)
chain: B1 chain with T74S
notes: also called 13H2
B5: "L2H3" CAR (humanized MUC1-C scFv chimeric antigen receptor) (other)
chain: B1 chain with R160K, A162R, V190A
B6: "L3H4" CAR (humanized MUC1-C scFv chimeric antigen receptor) (other)
chain: B1 chain with T74S, R160K, A162R, V190A, T198S
notes: also called 13H4
B7: "L1H2B" CAR (humanized MUC1-C scFv chimeric antigen receptor) (other)
chain: B1 chain with V78L, D85T, G184A
B8: "L3H3" CAR (humanized MUC1-C scFv chimeric antigen receptor) (other)
chain: B1 chain with T74S, R160K, A162R, V190A
B9: "L1H3" CAR (humanized MUC1-C scFv chimeric antigen receptor) (other)
chain: B1 chain with V78L, D85T, R160K, A162R, V190A
B10: "L2H4" CAR (humanized MUC1-C scFv chimeric antigen receptor) (other)
chain: B1 chain with R160K, A162R, V190A, T198S

These binders were tested against T1, His-tagged p62/p58 MUC1 protein (assay: flow cytometry of CAR-T cells (anti-CD3/CD28 bead re-activated, 48 hours) stained with His-tagged p62/p58 MUC1 protein and anti-His secondary antibody).
Description: (§1) MUC1-C candidate CARs were subcloned into a tricistronic piggyBac transposon (EF1alpha promoter-iC9 Safety Switch-T2A-MUC1-C CAR-T2A-DHFR selection gene) and CAR-T cells were produced using pan T cells from a normal human blood donor as described herein (FIG. 6). Expression of each candidate CAR on the surface of piggyBac-modified cells was confirmed by FACS staining 19 days post-transposon delivery using an His-tagged p62/p58 MUC1 protein, followed by anti-His secondary antibody (FIG. 6). Specifically, cells were examined by flow cytometry for surface-expression of CAR on either mock transposed (blue) or anti-CD3/CD28 bead re-activated (red) cells (activation for 48 hours) that received transposon encoding CAR and data are shown as overlaid histograms; numbers represent percentage of cells expressing CAR on cell surface. All candidate MUC1-C CARs were expressed and detected on the surface of piggyBac-produced CAR-T cells (FIG. 7).

Binder	MFI (activated cells)
B1	3830 MFI
B2	3030 MFI
B3	2510 MFI
B4	3620 MFI
B5	2880 MFI
B6	1960 MFI
B7	2990 MFI
B8	2580 MFI
B9	3320 MFI
B10	3020 MFI

What follows are binders tested against T1, His-tagged p62/p58 MUC1 protein (assay: flow cytometry of CAR-T cells stained with His-tagged p62/p58 MUC1 protein and anti-His secondary antibody, day 19).
Description: as §1

Binder	MFI (non-activated cells)
B1	717 MFI
B2	720 MFI
B3	737 MFI
B4	726 MFI
B5	770 MFI
B6	695 MFI
B7	714 MFI
B8	696 MFI
B9	743 MFI
B10	729 MFI

What follows are binders tested against MUC1 on MDA-MB-468.lucGFP cells (UniProt P15941 24-1255) (assay: cell-based or functional assay).
Chain of MUC1 on MDA-MB-468.lucGFP cells (P15941 24-1255): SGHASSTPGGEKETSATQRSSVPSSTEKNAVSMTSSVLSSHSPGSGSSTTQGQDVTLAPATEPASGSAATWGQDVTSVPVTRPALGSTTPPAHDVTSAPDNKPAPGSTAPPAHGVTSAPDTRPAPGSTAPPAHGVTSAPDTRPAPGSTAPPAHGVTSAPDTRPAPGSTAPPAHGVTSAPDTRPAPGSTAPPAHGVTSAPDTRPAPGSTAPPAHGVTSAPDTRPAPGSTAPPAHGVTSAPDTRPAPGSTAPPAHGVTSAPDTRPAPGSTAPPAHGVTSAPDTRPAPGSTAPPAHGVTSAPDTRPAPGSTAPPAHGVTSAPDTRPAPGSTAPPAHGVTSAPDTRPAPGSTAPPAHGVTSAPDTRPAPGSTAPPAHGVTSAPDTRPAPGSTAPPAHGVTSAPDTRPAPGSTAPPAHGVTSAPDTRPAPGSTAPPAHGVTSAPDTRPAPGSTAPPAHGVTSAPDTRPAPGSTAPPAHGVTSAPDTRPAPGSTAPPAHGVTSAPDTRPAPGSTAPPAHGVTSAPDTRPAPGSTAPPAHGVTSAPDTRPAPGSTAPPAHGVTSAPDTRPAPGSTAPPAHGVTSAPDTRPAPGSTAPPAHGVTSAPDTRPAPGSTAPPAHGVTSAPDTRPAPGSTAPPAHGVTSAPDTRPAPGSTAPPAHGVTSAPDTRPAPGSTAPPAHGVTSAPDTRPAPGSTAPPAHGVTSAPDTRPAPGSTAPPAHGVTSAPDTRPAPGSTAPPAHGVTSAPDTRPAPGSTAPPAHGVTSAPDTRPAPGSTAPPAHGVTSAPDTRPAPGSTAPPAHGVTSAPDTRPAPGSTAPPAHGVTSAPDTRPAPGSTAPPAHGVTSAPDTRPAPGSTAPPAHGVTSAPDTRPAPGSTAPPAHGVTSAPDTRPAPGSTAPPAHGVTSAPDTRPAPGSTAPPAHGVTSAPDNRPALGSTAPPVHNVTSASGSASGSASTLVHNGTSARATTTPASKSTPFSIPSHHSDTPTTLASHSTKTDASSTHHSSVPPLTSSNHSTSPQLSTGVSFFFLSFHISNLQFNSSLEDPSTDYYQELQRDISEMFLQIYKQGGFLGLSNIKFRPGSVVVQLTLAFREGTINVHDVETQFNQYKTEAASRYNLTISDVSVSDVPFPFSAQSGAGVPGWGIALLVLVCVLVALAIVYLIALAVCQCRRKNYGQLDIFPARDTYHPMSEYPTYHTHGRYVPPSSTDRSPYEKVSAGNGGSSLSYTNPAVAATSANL

Binder	Target cell killing area under the curve (AUC)
B1	482
B2	466
B3	498
B4	503
B5	542
B6	501
B7	528
B8	518
B9	490
B10	518
